Measured values published in patent US20030044400A1, “Composition and method for treating cells” (priority 2001, published 2003).

What was measured:
[1] = tested on: PC-12 cells; assay: Neurite outgrowth of PC-12 cells; format: cell-based; conditions: PC-12 cells in 0.5% serum+RPMI; 5uM Fetuin; over 2-3 days
Protocol: PC-12 cells were seeded in 10% heat-inactivated horse serum, 5% fetal bovine serum in RPMI 1640 medium for 1-2 days. The media were changed to 0.5% serum+RPMI overnight and treated with 5uM Fetuin.

[2] = tested on: P388 leukemia; assay: P388 Leukemia Model; format: in vivo; conditions: P388-bearing DBA/2 mice; for Survivors: 10 per group
Protocol: All mice used were kept according to NIH standard regulation. The DBA/2 mice were divided into 4 groups, 10 mice in each group. The P388 innoculum tumor was induced by intraperitoneal injection of 10^6 cells per 0.1 ml innoculum. All doses were made up to a volume of 0.5 ml. Treatment was intraperitoneal injection of 0.5 ml saline (control), 0.002 ml of 10 mg/ml Fetuin (Group I), 0.02 ml (Group II) and 0.2 ml (Group III) for 10 days following tumor transplant. Mortalities were recorded daily. Results are expressed as the percent increase in life span (ILS) in Table 2.
ILS=100×Median Life Span Treated−Median Life Span Control

[3] = Hematological and Pathological Assessment of Fetuin in Balb/C Mice; format: in vivo
Protocol: The Balb/C mice weighing 20-30 g at six to eight weeks of age were divided in six animals per group, 3 female and 3 male, in this study. Fetuin is administered IV or IP at dose of 5 mg, 0.5 mg, 0.05 mg and 0.005 mg per 20 gm mouse for 7 days. Because the nutritional supplement has potential beneficial effects on the immune response, potential toxicity is determined by clinical hematological and classical pathological parameters.
Pre-study assessment of highest tolerated dose administration by IV or IP injection. The end-point is the highest non-lethal dose administered by each route. Animals are screened daily for signs of lethality and the total time of observation is seven days.
Clinical and histological assessment of highest tolerated and lessor doses of Fetuin. Seven days prior to the beginning of phase II each animal is bled to determine its background values for hematological and clinical chemistry parameters. The highest tolerated dose and the next lowest, as well as the vehicle are injected in a single injection by the best-tolerated route. After 24 hours the animals are sacrificed. Gross and microscopic pathologic examination are performed on the organs. Hematological, clinical chemistries and clinical pathology tests are performed: (1) Blood Collection and Analysis: Blood samples are collected from each mouse, one at the start of the experiment prior to receiving their injection of Fetuin and the second collected at the time of euthanasia. The samples are collected via retro-orbital sinus bleed, or tail bleed, under anesthesia. (2) Hematology: Approximately 125 ul of whole blood is collected in an EDTA tube at the specified time. The following hematological parameters are determined: White blood cell count (WBC), Red blood cell count (RBC), Hemoglobin (HGB), Hematocrit (HCT), Mean Corpuscular Volume (MCV), Mean Corpuscular Hemoglobin (MCH), Mean Corpuscular Hemoglobin […] (MCHC), Platelet count (PLT), WBC differential count. Whole blood samples for hematology are disposed of one week after analysis. (3) Clinical Chemistry: Approximately 125 ul of whole blood is collected in a tube containing no additives for serum at the specified times. Tests determine the following clinical chemistry parameters: Alanine aminotransferase (ALT) and Aspartate aminotransferase (AST). (4) Collection of Tissue: The following tissues are collected into 10% neutral buffered formalin (NBF): kidney, liver, lung, thymus, reproductive organ, heart, spleen and lymph nodes. Any abnormalities or gross pathology found at necroscopy are recorded for each animal. (5) Histopathology: Histology is done on the tissue samples submitted for each animal. The tissues will be paraffin-embedded, sectioned and stained with hematoxylin and eosin (H&E). A pathology reads the slides for apparent abnormalities.
Clinical and histological assessment of highest tolerated dose of Fetuin administered daily over 14 days. The highest tolerated dose as determined in Phase II and the vehicle is injected daily for fourteen consecutive days by the best-tolerated route. After 24 hours, one-half of the animals are sacrificed. The remainder are sacrificed after 14 days. Gross microscopic pathologic examination are performed on the organs recovered from all animals. (1) Blood collection and analysis: Blood sample is collected from each mouse, one at the start of the experiment prior to receiving their injection of Fetuin and the second collected at the time of euthanasia. The samples are collected via retro-orbital sinus bleed or tail bleed under anesthesia. (2) Hematology: Approximately 125 ul of whole blood is collected in an EDTA tube at the specified time. The following hematology parameters is determined: White blood cell count (WBC), Red blood cell count (RBC), Hemoglobin (HGB), Hematocrit (HCT), Mean Corpuscular Volume (MCV), Mean Corpuscular Hemoglobin (MCH), Mean Corpuscular Hemoglobin […] (MCHC), Platelet count (PLC), WBC differential count. […]

[4] = tested on: normal cell lines; assay: Apoptosis in normal cell lines; format: cell-based; conditions: in 2-3 days
[5] = tested on: immune system (splenic T- and B-cells, response to SRBC); conditions: mouse, in vivo
Protocol: The Balb/C mice weighed 20-30 g with six to eight weeks of age and divided equally between male and female are used. Fetuin is administered IV or IP to each group of six animals either a single dose or multiple doses ranging from 0.05 mg to 5 mg per 20 g body weight. The volume of each injection is 0.2 ml. Phosphate buffered saline is used as the control and dilution vehicle.
Flow cytometric characterization of splenic T- and B-cells in Fetuin treated mice: T cells of mice can be recognized by the presence of Thy 1.2 or Thy 1.1 (depending on the genotype of the mouse), receptors isolated on the surface of peripheral T cells (lymph node, spleen and blood) as well as thymic epithelia.

Substance: Fetuin: Fetal bovine fetuin purified from fetal bovine serum by modified Spiro method; 60 Kd glycoprotein, homologue of alpha 2-HS glycoprotein
- neurite outgrowth [1]: neurite outgrowth was observed in many of the cells
- Survivors ([2]; 0.002 ml of 10 mg/ml Fetuin ip for 10 days, bracket (31) = day): 1 (31)
- Survivors ([2]; 0.02 ml of 10 mg/ml Fetuin ip for 10 days, bracket (29) = day): 1 (29)
- Survivors ([2]; 0.2 ml of 10 mg/ml Fetuin ip for 10 days (highest dose), bracket (58) = day, listed as Fetal fetuin): 8
- (ILS) Increased Life Span ([2]; 0.002 ml of 10 mg/ml Fetuin ip for 10 days): 29%
- (ILS) Increased Life Span ([2]; 0.02 ml of 10 mg/ml Fetuin ip for 10 days): 17.2%
- (ILS) Increased Life Span ([2]; 0.2 ml of 10 mg/ml Fetuin ip for 10 days (highest dose)): 141%
- Blood glucose levels ([3]; Balb/C mice, 0.005 mg per animal): 13 mg/dL
- Blood glucose levels ([3]; Balb/C mice, 0.05 mg Fetuin): 27 mg/dL
- Blood glucose levels ([3]; Balb/C mice, 0.5 mg Fetuin): 25 mg/dL
- Blood glucose levels ([3]; Balb/C mice, 5 mg Fetuin per animal): 41.6 mg/dL
- cholesterol levels elevated compared to the lower doses ([3]; Balb/C mice, 5 mg per mouse, P<0.05): 14%
- survival and clinical signs ([3]; Balb/C mice, 5, 0.5, 0.05 and 0.005 mg Fetuin via IP route, 7 days): survived for 7 days without any signs of distress
- White Blood Cell (WBC) levels ([3]; Balb/C mice, 24 hrs after injection of various doses, p=0.126): within the normal limits
- AST (Aspartate Aminotransferase) level ([3]; Balb/C mice, P=0.306): within the normal limits
- ALT (Alanine Aminotransferase) level ([3]; Balb/C mice, P=0.444): within the normal limits
- microscopic structure of tissues ([3]; Balb/C mice, all dosage groups): normal in architecture
- body weight change ([3]; Balb/C mice, control vs Fetuin treated group): no significant body weight change
- Blood Urinary Nitrogen (BUN) levels ([3]; Balb/C mice, highest and lowest dose groups, unrelated to dose): elevated
- overall toxicity ([3]; Balb/c mouse): very low toxicity
- red blood cell count, white blood cell count and platelet count ([3]; healthy animals, 5-fold increased dose): did not affect
- safety by hematological, clinical chemistry and histopathological analysis ([3]; healthy mice, 2.5-5 fold higher dose than effective in cancer-bearing mice): no obvious adverse effect was observed
- apoptosis in normal cell lines [4]: not the normal cell lines
- cell surface density of s-Ig on the B-cells [5]: no significant differences
- fraction of lymphocytes which were B-cells (s-Ig+) [5]: no differences between treatment groups
- fraction of splenic lymphocyte that were T-cells [5]: remained constant
- mean level of expression of Thy 1.2 [5]: did not differ significantly
